The assay has as its target flt(1,2,3): flt-1 Ig-like domains 1, 2 and 3 only fused to the Fc of IgG (human) [IgG part: P01857]. Put plainly: unlabeled VEGF titrated against 125I-VEGF165 binding to 1 ng immunoreactive flt(1, 2, 3) on anti-Fc plates; 4-parameter fit (FIG. 5).

Sequence of vascular endothelial growth factor VEGF165 (P15692 other isoform, or with tags, fused parts or gaps limits assumed): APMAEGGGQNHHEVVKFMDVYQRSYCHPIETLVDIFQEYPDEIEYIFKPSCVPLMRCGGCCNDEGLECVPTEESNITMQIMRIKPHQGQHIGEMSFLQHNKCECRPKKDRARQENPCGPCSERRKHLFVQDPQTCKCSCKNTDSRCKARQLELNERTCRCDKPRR

For “vascular endothelial growth factor VEGF165 (from UniProt P15692 27-191) (ligand)”, the IC50 (commonly the point on the concentration scale where inhibition reaches its midpoint) amounted to 1.34 ng/mL.

Values taken from patent US6897294.
